# Test results reported in the nanobody polyreactivity screen of Harvey et al. (2022).
# Experiment: yeast display, Sf9 membrane polyspecificity reagent, FACS + sequencing; frameworks hold sequencing errors
# Procedure, shortened: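 Nanobodies from a synthetic yeast display library (Saccharomyces cerevisiae BJ5465), induced 36–48 hours with galactose, were stained 1 hour at 4 °C with 10% biotinylated, detergent-solubilized Sf9 membrane reagent, enriched on streptavidin microbeads, then FACS-sorted. Anti-HA (expression) and streptavidin (reagent binding) fluorescence set low and high (top ~1%) gates. Polyreactivity labels come from the gate of origin. Genes were colony-PCR amplified, MiSeq 2 × 250 sequenced and filtered by CDR length.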
row,Sequence,polyreactivity (PSR sort gate)
1,QVQLVESGGGLVQAGGSLRLSCAASGSTVYYNAMGWYRQAPGKEREFVAAINCRGGSTYYADSVKGRFTISRDNSKNTVYLQMNSLKPEDTAVYYCAAEEPSTYYYVRSGYDYHFWEMYSWGQGTQVTVSS,low polyreactivity
2,QVQLVESGGGLVQAGGSLRLSCAASGSTYAYDMGSYRQAPGKERELVAAISWDGGDTYYADSVKGRFTISRDNAKNTVYLQMNSLKPEDTAVYYCNTVFQRSGYAAGVDYWGQGTQVTVSS,high polyreactivity
3,QVQLVESGGGLVQAGGSLRLSCAASGSTYDIYAMGWYRQAPGKEREKVAAISWSGGSTHYADSVKGRFTISRDNAKNTVFFQMNSLKPEDTAVYYCAAVGRLWSLWRTKSYNYWGQGTEVTVSS,low polyreactivity
4,QVQLVESGGGLVQAGGSLRLSCAASGSTYDNNRMGWYRQATGKERELVASITFNVGSTYYADSVKGRFTISRDNAKNTVYLQMNSLKPEETAVYYCAADDLNLSQALGYDYWGQGTQVTVSS,low polyreactivity
5,QVQLVESGGGLVQAGGSLRLSCAASGSTYHYAMGWYRQAPGKERELVASITWRGDTTYYADSVKGRFTISRDNAKNTVYLQMNSLKPEDTAVYYGATVPYSPPSAGPEYDYWGQGTQVTVSS,high polyreactivity
6,QVQLVESGGGLVQAGGSLRLSCAASGSTYNNAMGWYRQAPGKERELVAAIRWSGGSTYYADSVKGRFTISRDNAKNTVYLQMNSLKPEDTAVYYCAARYRWSRKRYNDYDYWGQGTQVTVSS,high polyreactivity
7,QVQLVESGGGLVQAGGSLRLSCAASGSTYNVNAMGWARQAPGKERELVAAITSSGGSSNYADSVKGRFTISRDNAKNTVYLQMNSLKPEDTAVYYCAADAIFFSRLNLGYDYWGQGTQVTVSS,low polyreactivity
8,QVQLVESGGGLVQAGGSLRLSCAASGSTYRNAMGWYRQAPGKERELVAAITKSDSSTYYADSVKGRFTISRDNAKNTVYLQMYSLKPEDTAVYYCNVDRAWPPWPYDYWGQGTQVTVSS,low polyreactivity
9,QVQLVESGGGLVQAGGSLRLSCAASGSTYRYTMGWYRQAPGKERELVAAITGSAGRTYYADSVKGRFTISRDNAKNTVYLQMNSLKPEDTAVYYCNKDRPRKFWDYYYWGQGTQVTVSS,high polyreactivity
10,QVQLVESGGGLVQAGGSLRLSCAASGSTYTYALGWSRQAPGKERELVADITQSGGSTYYADSVKGRFTISRDNAKNTVYLQMNSLKTEDTAVYYCNAESRHVFEDEYWGQGTQVTGSS,low polyreactivity
11,QVQLVESGGGLVQAGGSLRLSCAASGSTYVGYAMGWYRQAPRKERDLVADIDSIGGSTYYADTVKRRFTISRDKAKNTVYLQMNSLKPEDTAVYYCAARRFDTALVLYDYWGQCTQVTVSS,low polyreactivity
12,QVQLVESGGGLVQAGGSLRLSCAASGSTYVGYTLGWYRQAPGKERELVAAITRRSGSTYYADSVKGRFTISRDNAKNTVYVQMNSLKPEDTAVYYCAKDFSRYSRFGHTEHDYWGQGTQVTVSS,high polyreactivity
13,QVQLVESGGGLVQAGGSLRLSCAASGSTYYENTMGWYRQAPGKEREMVAAISFRGGSTYYADSVKGRFTISRDNAKNTVYLQMNSLKPDDTAVYYCAKEYYTVRLYDYWGQGTQGTVSS,low polyreactivity
14,QVQLVESGGGLVQAGGSLRLSCAASGSTYYLYAMGWYRQAPGKESEFVARISASGGNTYYADSVKGRFTISRDNAKNTVYLQMNRLIPEDTAVFYCAARVRGRNASDYDYYYWGQGTQVTVSS,high polyreactivity
15,QVQLVESGGGLVQAGGSLRLSCAASGSTYYNAMGWYIQAPGKERELVAAIRFRSGSTYYADSVKGRFTISRDNAKNTVYLQMNSMKPVDTAVYYCAADNKRSWRYAYNYWGQGTQVTVSS,high polyreactivity
16,QVQLVESGGGLVQAGGSLRLSCAASGSTYYNTMGWYRQAPGKEREFVAAITWSTGTTYYADSVKGRFTISRDNAKNTVYLQMNSLKPEDTAVYYCATDDSRDWLNYWGQGTQVTVSS,low polyreactivity
17,QVQLVESGGGLVQAGGSLRLSCAASGSTYYQYVMGWYRQAPGKEMELVAAISGSGGSTYYADSVKGRFTISRDNAKNTVYLQMNSLKPEDTAVYYCAARLRGRGRPPFGYWGQGTQLTVSS,high polyreactivity
